Source: IntAct's records for PubMed 28380382

B1: Complex III assembly factor LYRM7 (Homo sapiens), Q5U5X0 (parent)
chain: MGRAVKVLQLFKTLHRTRQQVFKNDARALEAARIKINEEFKNNKSETSSKKIEELMKIGSDVELLLRTSVIQGIHTDHNTLKLVPRKDLLVENVPYCDAPTQKQ
partner: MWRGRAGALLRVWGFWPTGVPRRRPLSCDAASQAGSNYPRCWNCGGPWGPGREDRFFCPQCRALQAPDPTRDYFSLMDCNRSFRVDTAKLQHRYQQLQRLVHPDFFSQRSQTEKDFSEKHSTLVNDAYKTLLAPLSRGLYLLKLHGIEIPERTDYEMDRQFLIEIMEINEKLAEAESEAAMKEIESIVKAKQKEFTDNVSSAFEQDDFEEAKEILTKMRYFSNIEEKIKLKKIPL

Variants of: B1
Details: with hsc20_human HSCB

effect of a mutation on the interaction | Variant
disrupting interaction strength | MGRAVKVLQAAATLHRTRQQVFKNDARALEAARIKINEEFKNNKSETSSKKIEELMKIGSDVELLLRTSVIQGIHTDHNTLKLVPRKDLLVENVPYCDAPTQKQ [L10A;F11A;K12A]
with no effect | MGRAVKVLQLFKTLHRTRQQAAANDARALEAARIKINEEFKNNKSETSSKKIEELMKIGSDVELLLRTSVIQGIHTDHNTLKLVPRKDLLVENVPYCDAPTQKQ [V21A;F22A;K23A]
with no effect | MGRAVKVLQLFKTLHRTRQQVFKNNARALEAARIKINEEFKNNKSETSSKKIEELMKIGSDVELLLRTSVIQGIHTDHNTLKLVPRKDLLVENVPYCDAPTQKQ [D25N]
